Assay results taken from article PMC8266076.

Columns and labels:
Test in all cases: fluorescence anisotropy
Conditions in all cases: fluorescein-12-UTP incorporated during transcription; 50 mM Tris pH 7.5, 40 mM KCl, 10 mM MgCl2, 1 mM DTT, 10 nM fluorescein-labeled RNA, 21 C
A3G (Homo sapiens) = tested on: A3G (Homo sapiens)
[1] = tested on: A3C-A3Hhap II (synthetic double domain chimera) (Homo sapiens (synthetic chimera))
A3Hhap II (Homo sapiens) = tested on: A3Hhap II (Homo sapiens)

## HIV-1 5'UTR RNA (nt 1-497)
A3G (Homo sapiens)
  Kd: 6360 pM
[1]
  Kd: 30 pM
A3Hhap II (Homo sapiens)
  Kd: 520 pM
